Source: patent publication US20120165244A1, “METHODS FOR BINDING LEWIS Y ANTIGEN” (priority 2008, published 2012)

Columns and labels:
binding of CD14 to LPS = target: T1, binding of CD14 to LPS (Homo sapiens, UniProt P08571); experiment: Blockage of the binding of CD14 to LPS; settings: FIG. 4D
T1 construct: purchased R&D Systems
T1 sequence (P08571 20-352 limits assumed): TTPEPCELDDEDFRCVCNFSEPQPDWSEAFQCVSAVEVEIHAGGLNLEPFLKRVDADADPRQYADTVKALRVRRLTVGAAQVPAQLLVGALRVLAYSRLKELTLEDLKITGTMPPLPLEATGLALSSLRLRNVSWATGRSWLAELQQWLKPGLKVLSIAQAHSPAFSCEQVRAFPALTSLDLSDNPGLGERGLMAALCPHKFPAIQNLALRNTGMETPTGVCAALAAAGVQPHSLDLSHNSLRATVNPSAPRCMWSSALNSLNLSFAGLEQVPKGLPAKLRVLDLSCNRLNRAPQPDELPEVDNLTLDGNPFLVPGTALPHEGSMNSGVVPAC
Protocol: K. pneumoniae (3×10^5 CFU/well), E. coli O111:B4 smooth-type LPS (5 μg/well), or bovine serum albumin (BSA, 5 μg/well) in 100 μL of bicarbonate buffer (pH 9.6) were coated onto wells of high-binding microtiter plate (Corning Costar, Cambridge, Mass.). Nonspecific binding was blocked with binding buffer (20 mM Tris-HCl, pH 7.4, 0.15 M NaCl, 5 mM CaCl2) containing 50 mg/mL BSA. Various concentrations of rTMD proteins without or with CD14 (10 μg/mL; R&D Systems) in binding buffer containing 1 mg/mL BSA were added to wells and incubated for 2 hours. In some experiments, 0.2 M mannose, 5 mM EDTA, or Le^y were included in the binding buffer to compete with LPS and rTMD1 binding. Antibody against the c-Myc epitope of the rTMD proteins was added to wells and incubated for 2 hours, and peroxidase-labeled secondary antibody followed. Binding of rTMD proteins was detected by measuring absorbance at 450 nm.

RAW 264.7 cells [1] = experiment: LPS-induced TNF-α production in RAW 264.7 cells (ELISA); assay type: cell-based, murine
Protocol: Human leukemia monocytic THP-1 cells and murine macrophage cell line RAW 264.7 were obtained from the American Type Culture Collection. THP-1 cells were grown in suspension in RPMI-1640 supplemented with 10 mM HEPES, 1 mM sodium pyruvate, 0.1% β-mercaptoethanol, 100 U/ml penicillin, 100 µg/ml streptomycin, and 10% fetal bovine serum (FBS). RAW 264.7 cells were grown as an adhered layer in Dulbecco's modified Eagle's medium with 4 mM L-glutamine adjusted to contain 1.5 g/l sodium bicarbonate and 4.5 g/l glucose, 100 U/ml penicillin, […] streptomycin, and 10% FBS under a humidified 5% CO2 atmosphere at 37° C. For differentiation, THP-1 cells were plated in medium containing 10 nM PMA and allowed to adhere for 18 h.
(§1) TNF-α in conditioned medium or mouse serum was measured by an enzyme-linked immunosorbent assay (ELISA) (R&D Systems, Minneapolis, Minn.). Accumulation of nitrite in the medium or mouse serum was determined by a colorimetric assay using Griess reagent (Sigma-Aldrich). Blood urea nitrogen (BUN) and creatinine were measured with a Roche D&P modular (Roche Diagnostic Systems, Branchburg, N.J.). Assays were performed according to the manufacturer's protocol.

RAW 264.7 cells [2] = experiment: Western blotting of LPS-induced signaling pathways in RAW 264.7 cells; assay type: cell-based, murine
Protocol: rTMD1 (0-50 μg/mL, equals 0-2.18 nmole/mL) pre-incubated without or with Escherichia coli (E. coli) LPS (LPS O111:B4, Sigma-Aldrich) in the absence or presence of Lewis Y (Le^y; Dextra Laboratories, Reading, UK) for 30 minutes was used to stimulate THP-1 or RAW 264.7 cells. Incubation period included 15 minutes for pIκB and IκB (B-9 and C-21, Santa Cruz Biotechnology, Santa Cruz, Calif., unless otherwise noted), 20 minutes for p38 (C-20) and pp38 (D-8), 30 minutes for ERK1/2 (K-23), pERK1/2 (E-4), lamin B2 (E-3, Zymed Laboratories, San Francisco, Calif.), NF-κB p50 (C-19) and NF-κB p65 nuclear translocation (C-20), and 24 hours for iNOS expression using a specific antibody (N-20).

[3] = Chronic endotoxemia model (LPS 20 mg/kg i.p.) in mice; assay type: in vivo, Male FVB mice
Protocol: as §1
Male FVB mice (8-10 weeks old) were used to model sepsis in vivo. The Institutional Animal Care and Use Committee of the National Cheng Kung University approved procedures. In the chronic endotoxemia model, various concentrations of rTMD1 or rTMD proteins in equi-molar amounts were administrated by tail intravenous (i.v.) injection and LPS (20 mg/kg) or K. pneumoniae (5×10^2 CFU/mouse, BCRC) was administrated by intraperitoneal (i.p.) injection. After 6 or 12 hours, mice were sacrificed by pentobarbital anesthesia (50 mg/kg; i.p.). Sera were collected and assayed for TNF-α, NO, BUN, and creatinine, and lung and kidney tissues were removed, fixed with formalin, and embedded in paraffin for histochemical examination. In the lethal sepsis model, rTMD1 (2 mg/kg, equals 87.3 nmole/kg) was i.v.-administrated at 0, 6, 12, and 24 hours after i.p. administration of LPS (40 mg/kg). The half-life of rTMD1 in the circulation was determined by i.v. injection of rTMD1 (10 mg/kg, equals 436.64 nmole/kg) and serum samples were collected at various time intervals. The levels of rTMD1 in the collected sera were determined by a sandwich ELISA which employed anti-c-Myc monoclonal antibody and TM-H300 as capture and detection antibodies (both from Santa Cruz Biotechnology), respectively. For the lethal bacteremia model, rTMD1 (10 mg/kg) was administrated prior to i.p. injection of K. pneumoniae (5×10^3 CFU/mouse). Mortality was monitored every 6-12 hours until all mice in either experimental group died. Experimental procedure of determining LPS half-life is as following. LPS (20 mg/kg) was i.p.-administrated to male FVB mice without or with rTMD1 (10 mg/kg; i.v.). Serum samples were collected at various time intervals and the amount of LPS was determined by Limulus amebocyte lysate test (Associates of Cape Cod, E. Falmouth, Mass.). A further experiment was performed to determine whether rTMD1 affects bacterial clearance. K. pneumoniae (5×10^2 CFU/mouse) was i.p.-administrated to male FVB mice without or with rTMD1 (10 mg/kg; i.v.), and blood samples were collected at various time intervals. Outgrowth of K. pneumoniae was quantified by plating serial dilutions of blood samples on blood agar plates and enumerating colonies after overnight incubation at 37° C.

[4] = 12 hours after LPS, compared with LPS-treated mice
[5] = rTMD1 1-5 mg/kg i.v., 6 hours after LPS 20 mg/kg i.p.

B1: rTMD1: recombinant human thrombomodulin N-terminal lectin-like domain (residues Ala1-Ala155) with 6×His tag and c-Myc epitope, Pichia pastoris expressed (protein)
chain: EFAPAEPQPGGSQCVEHDCFALYPGPATFLNASQICDGLRGHLMTVRSSVAADVISLLLNGDGGVGRRRLWIGLQLPPGCGDPKRLGPLRGFQWVTGDNNTSYSRWARLDLNGAPLCGPLCVAVSAAEATVPSEPIWEEQQCEVKADGFLCEFHFPAYLEDDDDKIEQKLISEEDLNSAVDHHHHHH
modifications: left off: small tags and cut ends
With B1 the “binding of CD14 to LPS” value (binding of CD14 to LPS) was “inhibited”, the “TNF-α production in RAW 264.7 cells stimulated with LPS” value (RAW 264.7 cells [1]; pre-incubated with LPS, 6 hours incubation (FIG. 1A)) was “dose-dependently inhibited” and the “LPS-induced TNF-α production” value (RAW 264.7 cells [1]; various concentrations of LPS and rTMD1 (FIG. 1C)) was “dose-dependently inhibited”. The “LPS-induced nuclear translocation of NF-κB” value (RAW 264.7 cells [2]; FIG. 1E) was “inhibited in a dose-dependent fashion”, the “LPS-induced phosphorylation of ERK1/2 and p38” value (RAW 264.7 cells [2]; FIG. 1F) was “inhibited” and the “LPS-induced phosphorylation and degradation of IκBα” value (RAW 264.7 cells [2]; LPS 100 ng/mL, rTMD1 50 μg/mL (2.18 nmole/mL)) was “totally reversed”. The “iNOS induction by LPS” value (RAW 264.7 cells [2]; RAW 264.7 cells, FIG. 1G) was “inhibited”, the “pulmonary accumulation of PMNs / LPS-induced inflammatory responses” value ([3]; 6 hours after LPS administration (FIG. 2C-D)) was “significantly inhibited” and the BUN level [3, 4] was “markedly reduced”. For the same molecule, the serum creatinine level [3, 4] was “markedly reduced”, the extent of glomerulonephritis ([3]; kidney, 12 hours after LPS 20 mg/kg (FIG. 2E)) was “significantly reduced” and the “NO levels in mice” value [3, 5] was “significantly decreasing levels”. The “TNF-α levels in mice” value [3, 5] was “significantly decreasing levels”.
